Tests used:
PLAP (human) = PLAP (human) (UniProt Q9Y263); assay: Flag co-IP, 293 cells, MudPIT MS
VCIP135 (human) = target: T1, VCIP135 (human) (UniProt Q96JH7); assay: Flag co-IP, 293 cells, MudPIT MS
T1 sequence (looked up): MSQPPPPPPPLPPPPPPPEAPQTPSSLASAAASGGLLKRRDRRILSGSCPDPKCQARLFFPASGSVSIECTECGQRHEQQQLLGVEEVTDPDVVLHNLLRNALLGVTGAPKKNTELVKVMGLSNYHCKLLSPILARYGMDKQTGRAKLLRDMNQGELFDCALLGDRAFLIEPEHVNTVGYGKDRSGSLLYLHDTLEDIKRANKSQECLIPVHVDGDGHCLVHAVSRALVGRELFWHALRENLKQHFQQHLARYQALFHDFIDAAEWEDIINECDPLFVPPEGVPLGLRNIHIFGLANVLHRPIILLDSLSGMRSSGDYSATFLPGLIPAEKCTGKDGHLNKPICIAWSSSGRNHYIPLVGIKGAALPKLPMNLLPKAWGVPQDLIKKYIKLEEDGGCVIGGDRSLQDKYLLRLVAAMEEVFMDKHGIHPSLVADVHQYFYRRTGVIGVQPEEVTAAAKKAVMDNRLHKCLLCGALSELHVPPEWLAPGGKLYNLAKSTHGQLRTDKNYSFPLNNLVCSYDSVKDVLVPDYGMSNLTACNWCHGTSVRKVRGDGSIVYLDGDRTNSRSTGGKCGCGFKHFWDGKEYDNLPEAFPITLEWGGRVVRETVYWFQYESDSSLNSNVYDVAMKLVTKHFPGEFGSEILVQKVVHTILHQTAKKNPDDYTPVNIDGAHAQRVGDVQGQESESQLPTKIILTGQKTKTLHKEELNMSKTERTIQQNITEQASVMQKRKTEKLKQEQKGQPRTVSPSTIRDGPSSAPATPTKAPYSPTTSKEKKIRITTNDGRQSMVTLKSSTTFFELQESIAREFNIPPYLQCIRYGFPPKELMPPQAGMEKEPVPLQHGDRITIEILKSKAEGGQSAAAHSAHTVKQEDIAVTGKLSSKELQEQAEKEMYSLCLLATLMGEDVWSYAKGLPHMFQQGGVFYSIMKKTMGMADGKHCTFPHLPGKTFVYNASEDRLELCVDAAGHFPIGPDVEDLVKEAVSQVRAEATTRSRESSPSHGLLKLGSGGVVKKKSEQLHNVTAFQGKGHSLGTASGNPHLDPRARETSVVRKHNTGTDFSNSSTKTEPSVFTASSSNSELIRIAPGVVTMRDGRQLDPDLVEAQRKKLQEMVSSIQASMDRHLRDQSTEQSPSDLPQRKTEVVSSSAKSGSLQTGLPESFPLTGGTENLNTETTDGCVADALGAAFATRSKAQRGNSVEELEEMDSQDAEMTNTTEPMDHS

gp78 (human) [1] = target: gp78 (human) (UniProt Q9UKV5); assay: Flag co-IP, MudPIT MS, DMSO
[2] = target: Kelch repeat and BTB domain-containing protein 7, KBTB7 (human) (UniProt Q8WVZ9); assay: Flag co-IP, MudPIT MS, DMSO
Cullin 3 (human) [3] = target: Cullin 3 (human) (UniProt Q13618); assay: Flag co-IP, MudPIT MS, DMSO
SKP1 (human) [4] = target: SKP1 (human) (UniProt P63208); assay: Flag co-IP, MudPIT MS, DMSO
UBR1 (human) = UBR1 (human) (UniProt Q8IWV7); assay: Flag co-IP, MudPIT MS, DMSO
Cullin 1 (human) [5] = target: Cullin 1 (human) (UniProt Q13616); assay: Flag co-IP, MudPIT MS, DMSO
Praja 2 (human) = Praja 2 (human) (UniProt O43164); assay: Flag co-IP, MudPIT MS, DMSO
[6] = target: Retinoblastoma-associated factor 600, UBR4 (human) (UniProt Q5T4S7); assay: Flag co-IP, MudPIT MS, DMSO
[7] = target: Kelch-like protein 22. KLEIL22 (human) (UniProt Q53GT1); assay: Flag co-IP, MudPIT MS, DMSO
UBR2 (human) [8] = target: UBR2 (human) (UniProt Q8IWV8); assay: Flag co-IP, MudPIT MS, DMSO
Cullin 2 (human) = Cullin 2 (human) (UniProt Q13617); assay: Flag co-IP, MudPIT MS, MG132
gp78 (human) [9] = target: gp78 (human) (UniProt Q9UKV5); assay: Flag co-IP, MudPIT MS, MG132
Cullin 3 (human) [10] = target: Cullin 3 (human) (UniProt Q13618); assay: Flag co-IP, MudPIT MS, MG132
SKP1 (human) [11] = target: SKP1 (human) (UniProt P63208); assay: Flag co-IP, MudPIT MS, MG132
Cullin 1 (human) [12] = target: Cullin 1 (human) (UniProt Q13616); assay: Flag co-IP, MudPIT MS, MG132
[13] = target: CUL4- and DDB I-associated WDR protein 2, WDR26 (human) (UniProt Q9H7D7); assay: Flag co-IP, MudPIT MS, MG132
[14] = target: F-box//WD-repeat protein 1B, FBW1B (human) (UniProt Q9UKB1); assay: Flag co-IP, MudPIT MS, MG132
[15] = target: Retinoblastoma-associated factor 600, UBR4 (human) (UniProt Q5T4S7); assay: Flag co-IP, MudPIT MS, MG132
[16] = target: Kelch-like protein 22. KLEIL22 (human) (UniProt Q53GT1); assay: Flag co-IP, MudPIT MS, MG132
UBR2 (human) [17] = target: UBR2 (human) (UniProt Q8IWV8); assay: Flag co-IP, MudPIT MS, MG132
p97-Myc = p97-Myc co-IP, 293 cells, MudPIT MS

Chain of CUL4- and DDB I-associated WDR protein 2, WDR26 (human) (Q9H7D7 whole entry): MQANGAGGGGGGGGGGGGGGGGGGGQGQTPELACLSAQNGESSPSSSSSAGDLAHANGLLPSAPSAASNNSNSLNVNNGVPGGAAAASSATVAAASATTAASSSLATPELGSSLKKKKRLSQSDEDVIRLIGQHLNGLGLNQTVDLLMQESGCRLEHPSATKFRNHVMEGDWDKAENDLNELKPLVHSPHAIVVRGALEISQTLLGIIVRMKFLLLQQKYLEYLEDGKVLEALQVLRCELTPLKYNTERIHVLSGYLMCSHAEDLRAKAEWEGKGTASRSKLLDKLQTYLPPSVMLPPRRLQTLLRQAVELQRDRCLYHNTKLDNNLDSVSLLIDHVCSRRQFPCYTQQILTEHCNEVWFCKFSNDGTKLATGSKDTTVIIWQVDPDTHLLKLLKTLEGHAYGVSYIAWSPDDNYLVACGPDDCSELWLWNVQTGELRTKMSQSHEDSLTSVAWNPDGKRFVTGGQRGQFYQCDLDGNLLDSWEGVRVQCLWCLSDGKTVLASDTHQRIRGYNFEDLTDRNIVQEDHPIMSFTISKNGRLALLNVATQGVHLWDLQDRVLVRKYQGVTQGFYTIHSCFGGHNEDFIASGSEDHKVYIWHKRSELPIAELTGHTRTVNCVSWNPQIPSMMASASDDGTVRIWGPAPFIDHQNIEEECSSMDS
Chain of endogenous FAF1 (Q9UNN5 whole entry): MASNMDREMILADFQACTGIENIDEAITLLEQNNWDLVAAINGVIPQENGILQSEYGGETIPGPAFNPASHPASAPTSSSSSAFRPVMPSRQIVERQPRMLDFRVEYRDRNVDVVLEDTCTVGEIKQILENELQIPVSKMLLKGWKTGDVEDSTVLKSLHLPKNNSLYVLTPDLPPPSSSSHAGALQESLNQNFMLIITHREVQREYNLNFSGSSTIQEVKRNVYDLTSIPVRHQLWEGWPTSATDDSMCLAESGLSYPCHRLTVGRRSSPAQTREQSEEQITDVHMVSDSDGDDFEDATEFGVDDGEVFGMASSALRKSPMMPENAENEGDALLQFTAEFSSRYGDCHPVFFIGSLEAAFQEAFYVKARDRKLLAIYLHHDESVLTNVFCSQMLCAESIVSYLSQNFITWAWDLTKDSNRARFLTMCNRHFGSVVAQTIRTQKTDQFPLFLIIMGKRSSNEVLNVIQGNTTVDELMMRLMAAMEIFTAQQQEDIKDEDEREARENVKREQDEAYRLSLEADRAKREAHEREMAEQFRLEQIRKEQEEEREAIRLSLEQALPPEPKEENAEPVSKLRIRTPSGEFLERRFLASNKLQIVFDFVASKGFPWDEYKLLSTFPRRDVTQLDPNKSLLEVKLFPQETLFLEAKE
Chain of gp78 (human) (Q9UKV5 whole entry, the tested form may be a part): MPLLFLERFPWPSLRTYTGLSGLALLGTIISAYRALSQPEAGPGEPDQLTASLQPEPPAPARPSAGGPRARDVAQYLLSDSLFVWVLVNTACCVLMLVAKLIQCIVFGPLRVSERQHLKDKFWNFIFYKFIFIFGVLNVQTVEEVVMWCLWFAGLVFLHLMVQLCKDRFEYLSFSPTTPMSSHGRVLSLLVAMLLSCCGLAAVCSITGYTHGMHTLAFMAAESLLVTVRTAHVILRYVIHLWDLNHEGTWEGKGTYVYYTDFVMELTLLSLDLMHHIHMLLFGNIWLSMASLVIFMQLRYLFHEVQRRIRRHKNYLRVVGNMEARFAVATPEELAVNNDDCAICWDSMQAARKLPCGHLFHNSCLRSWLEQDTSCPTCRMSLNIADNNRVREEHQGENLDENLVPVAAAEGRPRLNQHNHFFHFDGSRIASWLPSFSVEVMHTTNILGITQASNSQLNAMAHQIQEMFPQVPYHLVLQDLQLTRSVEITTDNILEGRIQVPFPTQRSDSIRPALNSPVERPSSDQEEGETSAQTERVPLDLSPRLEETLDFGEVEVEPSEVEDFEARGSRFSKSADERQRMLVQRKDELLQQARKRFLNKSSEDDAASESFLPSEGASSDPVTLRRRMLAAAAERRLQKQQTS
Chain of Praja 2 (human) (O43164 2-708 limits assumed): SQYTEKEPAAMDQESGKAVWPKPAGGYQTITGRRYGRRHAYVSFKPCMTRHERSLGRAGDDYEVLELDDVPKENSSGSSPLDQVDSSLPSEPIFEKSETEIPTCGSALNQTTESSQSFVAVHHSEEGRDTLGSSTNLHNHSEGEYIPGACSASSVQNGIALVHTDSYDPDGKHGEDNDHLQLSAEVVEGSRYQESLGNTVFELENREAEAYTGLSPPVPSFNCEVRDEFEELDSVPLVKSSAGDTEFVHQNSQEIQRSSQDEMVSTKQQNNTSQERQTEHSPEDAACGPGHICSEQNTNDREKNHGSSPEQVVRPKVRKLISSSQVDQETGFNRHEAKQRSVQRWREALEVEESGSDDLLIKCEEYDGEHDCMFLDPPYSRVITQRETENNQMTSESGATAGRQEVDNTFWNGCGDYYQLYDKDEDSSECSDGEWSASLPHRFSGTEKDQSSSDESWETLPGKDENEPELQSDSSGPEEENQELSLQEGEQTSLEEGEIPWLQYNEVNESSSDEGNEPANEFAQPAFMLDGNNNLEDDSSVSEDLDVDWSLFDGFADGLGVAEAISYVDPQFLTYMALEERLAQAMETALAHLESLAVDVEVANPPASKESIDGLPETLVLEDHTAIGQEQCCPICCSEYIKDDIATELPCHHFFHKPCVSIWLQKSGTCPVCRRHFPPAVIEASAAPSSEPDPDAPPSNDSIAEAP
Chain of Cullin 3 (human) (Q13618 2-768 limits assumed): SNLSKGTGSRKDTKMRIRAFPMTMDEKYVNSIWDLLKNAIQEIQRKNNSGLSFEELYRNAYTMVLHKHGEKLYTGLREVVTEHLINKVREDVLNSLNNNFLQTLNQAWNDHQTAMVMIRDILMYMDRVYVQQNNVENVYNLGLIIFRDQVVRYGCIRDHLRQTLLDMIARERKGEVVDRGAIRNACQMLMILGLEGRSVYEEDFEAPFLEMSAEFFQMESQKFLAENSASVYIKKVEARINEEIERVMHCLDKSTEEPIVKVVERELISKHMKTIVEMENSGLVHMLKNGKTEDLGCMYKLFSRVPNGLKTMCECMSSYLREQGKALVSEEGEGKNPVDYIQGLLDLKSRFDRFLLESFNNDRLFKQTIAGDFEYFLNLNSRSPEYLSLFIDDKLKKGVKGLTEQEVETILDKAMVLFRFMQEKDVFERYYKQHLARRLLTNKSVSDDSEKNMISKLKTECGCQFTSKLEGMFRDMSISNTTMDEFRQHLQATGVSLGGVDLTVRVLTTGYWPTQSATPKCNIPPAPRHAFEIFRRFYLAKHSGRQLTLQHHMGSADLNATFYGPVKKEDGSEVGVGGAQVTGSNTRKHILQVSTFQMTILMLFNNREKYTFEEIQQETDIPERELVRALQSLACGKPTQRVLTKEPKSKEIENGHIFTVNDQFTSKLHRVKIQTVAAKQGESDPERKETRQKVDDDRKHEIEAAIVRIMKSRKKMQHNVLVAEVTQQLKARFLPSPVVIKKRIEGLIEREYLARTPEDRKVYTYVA
Chain of Cullin 2 (human) (Q13617 whole entry): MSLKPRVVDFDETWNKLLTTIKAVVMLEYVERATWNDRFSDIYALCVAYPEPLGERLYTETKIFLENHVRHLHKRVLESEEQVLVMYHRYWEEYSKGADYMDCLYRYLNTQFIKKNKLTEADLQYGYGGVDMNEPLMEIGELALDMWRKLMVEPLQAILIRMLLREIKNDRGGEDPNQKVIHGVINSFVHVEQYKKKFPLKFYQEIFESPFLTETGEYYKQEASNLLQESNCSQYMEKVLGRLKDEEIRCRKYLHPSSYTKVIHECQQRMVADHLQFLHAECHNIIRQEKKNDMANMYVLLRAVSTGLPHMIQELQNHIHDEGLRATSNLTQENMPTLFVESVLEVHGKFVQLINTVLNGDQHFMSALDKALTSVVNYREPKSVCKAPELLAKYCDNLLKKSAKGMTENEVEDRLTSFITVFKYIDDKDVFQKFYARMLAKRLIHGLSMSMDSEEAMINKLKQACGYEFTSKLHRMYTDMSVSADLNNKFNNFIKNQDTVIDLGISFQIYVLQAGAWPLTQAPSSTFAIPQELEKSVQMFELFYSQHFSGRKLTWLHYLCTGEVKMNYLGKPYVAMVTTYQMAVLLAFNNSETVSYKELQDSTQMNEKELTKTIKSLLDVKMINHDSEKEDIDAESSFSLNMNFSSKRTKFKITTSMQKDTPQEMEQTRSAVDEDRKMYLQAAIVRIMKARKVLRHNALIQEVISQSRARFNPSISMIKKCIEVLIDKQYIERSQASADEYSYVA
Chain of PLAP (human) (Q9Y263 whole entry): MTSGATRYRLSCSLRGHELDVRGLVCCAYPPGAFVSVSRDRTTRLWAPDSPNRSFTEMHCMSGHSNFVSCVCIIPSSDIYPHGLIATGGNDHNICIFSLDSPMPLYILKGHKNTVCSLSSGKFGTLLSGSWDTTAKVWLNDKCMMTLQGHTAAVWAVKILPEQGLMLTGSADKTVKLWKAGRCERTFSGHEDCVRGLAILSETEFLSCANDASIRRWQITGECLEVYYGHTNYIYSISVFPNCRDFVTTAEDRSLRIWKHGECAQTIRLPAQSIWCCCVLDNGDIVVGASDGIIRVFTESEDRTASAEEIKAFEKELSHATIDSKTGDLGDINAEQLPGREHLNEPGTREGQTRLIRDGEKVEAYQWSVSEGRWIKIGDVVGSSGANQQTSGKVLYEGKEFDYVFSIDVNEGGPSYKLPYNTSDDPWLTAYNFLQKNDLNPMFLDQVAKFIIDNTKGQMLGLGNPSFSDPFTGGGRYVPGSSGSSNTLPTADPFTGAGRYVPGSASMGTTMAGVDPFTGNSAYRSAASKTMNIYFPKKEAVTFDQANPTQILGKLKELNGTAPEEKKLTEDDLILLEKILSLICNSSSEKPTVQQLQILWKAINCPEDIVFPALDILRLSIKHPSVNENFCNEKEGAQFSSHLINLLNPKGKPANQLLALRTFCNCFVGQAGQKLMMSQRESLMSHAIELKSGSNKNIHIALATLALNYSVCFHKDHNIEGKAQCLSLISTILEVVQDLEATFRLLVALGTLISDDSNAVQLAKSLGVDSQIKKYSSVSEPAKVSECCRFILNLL

For Flag-FAF1 (from UniProt Q9UNN5 1-650), the sequence count (PLAP (human)) was 2, the sequence coverage (PLAP (human)) was 4.8% and the spectrum count (PLAP (human)) was 2. It also gave a sequence count (VCIP135 (human)) of 5, a sequence coverage (VCIP135 (human)) of 5.9% and a spectrum count (VCIP135 (human)) of 5. For the same substance, the abundance factor (AF) (gp78 (human) [1]) was 2.7, the sequence count (gp78 (human) [1]) was 2 and the spectrum count (gp78 (human) [1]) was 2. It also gave an abundance factor (AF) [2] of 2.6, a sequence count [2] of 2 and a spectrum count [2] of 2. The abundance factor (AF) (Cullin 3 (human) [3]) was 24.6, the abundance factor (AF) (SKP1 (human) [4]) was 10.7 and the sequence count (SKP1 (human) [4]) was 2. For the same substance, the spectrum count (SKP1 (human) [4]) was 2, the abundance factor (AF) (UBR1 (human)) was 1 and the sequence count (UBR1 (human)) was 2. For the same substance, the spectrum count (UBR1 (human)) was 2, the abundance factor (AF) (Cullin 1 (human) [5]) was 9.1 and the sequence count (Cullin 1 (human) [5]) was 6. The spectrum count (Cullin 1 (human) [5]) was 8, the abundance factor (AF) (Praja 2 (human)) was 3.8 and the sequence count (Praja 2 (human)) was 3. The spectrum count (Praja 2 (human)) was 3, the abundance factor (AF) [6] was 1.6 and the sequence count [6] was 9. The spectrum count [6] was 9, the abundance factor (AF) [7] was 8.3 and the sequence count [7] was 6. The spectrum count [7] was 6, the abundance factor (AF) (UBR2 (human) [8]) was 2 and the sequence count (UBR2 (human) [8]) was 4. The spectrum count (UBR2 (human) [8]) was 4, the abundance factor (AF) (Cullin 2 (human)) was 7.2 and the sequence count (Cullin 2 (human)) was 6. It also gave a spectrum count (Cullin 2 (human)) of 6, an abundance factor (AF) (gp78 (human) [9]) of 8.6 and a sequence count (gp78 (human) [9]) of 4. The spectrum count (gp78 (human) [9]) was 6, the abundance factor (AF) (Cullin 3 (human) [10]) was 14.1 and the sequence count (Cullin 3 (human) [10]) was 12. It also gave a spectrum count (Cullin 3 (human) [10]) of 12, an abundance factor (AF) (SKP1 (human) [11]) of 33.6 and a sequence count (SKP1 (human) [11]) of 4. For the same substance, the spectrum count (SKP1 (human) [11]) was 6, the abundance factor (AF) (Cullin 1 (human) [12]) was 8.4 and the sequence count (Cullin 1 (human) [12]) was 5. The spectrum count (Cullin 1 (human) [12]) was 7, the abundance factor (AF) [13] was 8.9 and the sequence count [13] was 5. It also gave a spectrum count [13] of 5, an abundance factor (AF) [14] of 3.4 and a sequence count [14] of 2. For the same substance, the spectrum count [14] was 2, the abundance factor (AF) [15] was 10.2 and the sequence count [15] was 47. For the same substance, the spectrum count [15] was 56, the abundance factor (AF) [16] was 11.7 and the sequence count [16] was 8. For the same substance, the spectrum count [16] was 8, the abundance factor (AF) (UBR2 (human) [17]) was 1 and the sequence count (UBR2 (human) [17]) was 2. It also gave a spectrum count (UBR2 (human) [17]) of 2.

“endogenous FAF1 (from UniProt Q9UNN5 1-650)” was tested, and the sequence count (p97-Myc) was 7, the sequence coverage (p97-Myc) was 8.2% and the spectrum count (p97-Myc) was 11.
